{"source": "patent US20110262386A1", "about": "“METHODS OF TREATING INFLAMMATION” (CAROLUS THERPEUTICS, INC., priority 2008, published 2011)", "key": {"[1]": {"biological_target": "CXCR4-bearing Jurkat cells (Homo sapiens, UniProt P61073)", "sequence (P61073 whole entry)": "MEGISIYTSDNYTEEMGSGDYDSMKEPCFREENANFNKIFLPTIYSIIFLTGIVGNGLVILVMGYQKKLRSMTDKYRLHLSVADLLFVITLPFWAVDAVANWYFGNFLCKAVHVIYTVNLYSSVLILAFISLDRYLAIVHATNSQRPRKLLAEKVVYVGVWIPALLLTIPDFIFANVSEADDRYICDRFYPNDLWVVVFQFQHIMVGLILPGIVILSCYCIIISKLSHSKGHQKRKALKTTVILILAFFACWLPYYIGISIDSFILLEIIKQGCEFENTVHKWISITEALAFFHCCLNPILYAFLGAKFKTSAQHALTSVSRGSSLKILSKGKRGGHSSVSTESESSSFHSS"}, "[2]": {"test_system": "Apoe−/− mice"}, "[3]": {"test_system": "MonoMac6 cells", "experiment": "Monocytic cell arrest under flow on CHO/ICAM-1 cells", "format": "cell-based", "settings": "exposure 2 h, flow conditions", "description": "(§1) Arrest of calcein-AM (Molecular Probes)-labeled monocytes, T cells and L1.2 transfectants was quantified in parallel-wall chambers in flow (1.5 dynes/cm^2, 5 min) (Schober, A., at al. (2004) Circulation 109, 380-385; Osterman, G., at al. (2002) Nat. Immunol. 3, 151-158; Weber, C., at al. (1996) J. Cell Biol. 134, 1063-1073)."}, "[4]": {"test_system": "primary human effector T cells", "experiment": "T-cell arrest under flow on aortic endothelial cells", "format": "cell-based", "settings": "immobilized on aortic endothelial cells", "description": "as §1"}, "[5]": {"test_system": "primary CD3+ T lymphocytes", "experiment": "Transwell chemotaxis of T cells", "format": "cell-based, human", "settings": "CD3+ T lymphocytes devoid of CXCR1 and CXCR2", "description": "(§2) Pore sizes and intervals were 5 μm and 3 h (monocytes), 3 μm and 1.5 h (T cells), and […] and 1 h (neutrophils)."}, "[6]": {"test_system": "primary human neutrophils", "experiment": "Calcium mobilization in neutrophils (Fluo-4 AM)", "format": "cell-based"}, "[7]": {"biological_target": "T1, CCR5 (Homo sapiens, UniProt P51681)", "T1 construct": "host or cells: L1.2 pre-B lymphoma cells", "T1 sequence (P51681 whole entry)": "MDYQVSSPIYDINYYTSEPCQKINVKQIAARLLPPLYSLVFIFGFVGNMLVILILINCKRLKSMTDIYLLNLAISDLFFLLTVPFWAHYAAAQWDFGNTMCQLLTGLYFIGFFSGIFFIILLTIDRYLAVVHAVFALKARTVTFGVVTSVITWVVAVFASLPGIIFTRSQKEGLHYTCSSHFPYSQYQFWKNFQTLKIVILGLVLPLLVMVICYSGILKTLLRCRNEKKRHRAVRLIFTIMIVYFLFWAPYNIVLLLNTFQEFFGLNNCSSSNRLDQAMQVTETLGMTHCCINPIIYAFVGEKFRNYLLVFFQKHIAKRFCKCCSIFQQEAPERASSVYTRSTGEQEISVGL", "experiment": "CCR5 internalization in L1.2 CCR5 transfectants", "format": "cell-based", "description": "(§3) Internalization was calculated relative to surface expression of buffer-treated cells (100% control) and isotype control staining (0% control): geometric MFI[experimental]−MFI[0% control]/MFI[100% control]−MFI[0% control]×100."}, "[8]": {"test_system": "primary human monocytes", "experiment": "Transwell chemotaxis of monocytes", "format": "cell-based", "description": "as §2"}, "[9]": {"test_system": "CXCR2", "experiment": "Calcium mobilization in L1.2 CXCR2 transfectants", "format": "cell-based"}, "[10]": {"biological_target": "T2, CXCR2 (Homo sapiens, UniProt P25025)", "T2 construct": "expressed in transfected cells", "T2 sequence (P25025 1-360)": "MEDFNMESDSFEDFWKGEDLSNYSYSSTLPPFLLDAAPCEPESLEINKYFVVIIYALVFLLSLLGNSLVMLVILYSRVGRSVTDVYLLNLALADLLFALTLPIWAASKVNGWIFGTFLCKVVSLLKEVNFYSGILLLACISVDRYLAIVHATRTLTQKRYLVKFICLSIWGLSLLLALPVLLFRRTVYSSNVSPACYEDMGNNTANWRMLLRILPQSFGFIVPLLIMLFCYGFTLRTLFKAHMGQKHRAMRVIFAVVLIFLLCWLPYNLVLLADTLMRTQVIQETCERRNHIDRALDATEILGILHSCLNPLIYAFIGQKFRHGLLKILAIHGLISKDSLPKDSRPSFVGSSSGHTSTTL", "experiment": "CXCR2 internalization assay, HEK293-CXCR2", "format": "cell-based", "settings": "FACS of surface CXCR2, stable HEK293 transfectants", "description": "as §3"}, "[11]": {"test_system": "primary human neutrophils", "experiment": "Transwell chemotaxis of neutrophils", "format": "cell-based", "description": "as §2"}, "[12]": {"test_system": "postcapillary venules of cremaster muscle", "experiment": "Cremaster microcirculation model, intravital microscopy", "format": "in vivo, mouse", "settings": "MIF injected adjacent to the muscle", "description": "After 4 h, intravital microscopy (Zeiss Axioplan; 20×) was performed in postcapillary venules (Gregory, J. L., at al. (2004) Arthritis Rheum. 50, 3023-3034; Keane, M. P., at al. (2004) J. Immunol. 172, 2853-2860). Adhesion was measured as leukocytes stationary for more than 30 s, emigration as the number of extravascular leukocytes per field."}, "[13]": {"test_system": "αLβ2 (LFA-1)", "experiment": "αLβ2 integrin activation assay (327C reporter antibody, flow cytometry)", "format": "cell-based", "settings": "MonoMac6 cells and human blood monocytes; persisted over 30 min", "source_text": "LFA-1 activation analyzed by flow cytometry is reported as the increase in mean fluorescent intensity (MFI) or relative to the positive control (Shamri, R., at al. (2005) Nat. Immunol. 6, 497-506)."}, "[14]": {"test_system": "primary human monocytes", "experiment": "Monocyte arrest under flow on human aortic endothelial cells", "format": "cell-based", "settings": "endothelial cells pretreated 2 h, flow conditions", "description": "as §1"}, "[15]": {"test_system": "mice with wild-type bone marrow", "experiment": "Model of acute peritonitis (MIF-induced)", "format": "in vivo, mouse", "settings": "after 4 h", "description": "After 4 h, peritoneal lavage was performed and Gr-1^+CD115^−F4/80^− neutrophils were quantified by flow cytometry using the relevant conjugated antibodies."}, "[16]": {"test_system": "human aortic (or venous) endothelial cells", "experiment": "Real-time PCR and ELISA of arrest chemokines in endothelial cells", "format": "cell-based", "settings": "2-h-long preincubation", "description": "RNA was reverse-transcribed using oligo-dT primers. RTPCR was performed using QuantiTect Kit with SYBRGreen (Qiagen), specific primers and an MJ Opticon2 (Biozym). CXCL8 was quantified by Quantikine ELISA (R&D)."}, "[17]": {"settings": "12 weeks, compared with vehicle controls"}}}
{"molecule": "c1ccc(CNCc2ccc(CN3CCCNCCNCCCNCC3)cc2)nc1", "note": "[AMD3465]", "values": [{"measurement": "effect on specific binding of fluorescein-MIF to CXCR4-bearing Jurkat cells", "setting": "[1]", "value": "inhibited"}, {"measurement": "lesion formation in oil red O-stained aortic root sections", "setting": "[2]; [17]", "value": "significantly exacerbates lesion formation"}, {"measurement": "lesion formation in thoracoabdominal aortas prepared en face", "setting": "[2]; [17]", "value": "significantly exacerbates lesion formation"}, {"measurement": "relative number of circulating neutrophils", "setting": "[2]; further increases during disease progression", "value": "expansion in the relative number of circulating neutrophils"}, {"measurement": "peripheral blood leukocytes", "setting": "[2]; within 2 days, sustained throughout the study period", "value": "pronounced peripheral blood leukocytosis"}]}
{"molecule": "CXCL8: Chemokine from PeproTech; cognate CXCR2 ligand [reference compound]", "values": [{"measurement": "monocytic cell arrest on pretreated CHO/ICAM-1 transfectants", "setting": "[3]", "value": "increased monocytic cell arrest"}]}
{"molecule": "CXCL12: Chemokine from PeproTech; known CXCR4 ligand and T-cell chemoattractant [reference compound]", "values": [{"measurement": "arrest of primary human effector T cells", "setting": "[4]", "value": "triggered the arrest"}]}
{"molecule": "MIF: Recombinant MIF, expressed and purified as described; pro-inflammatory cytokine, ligand for CXCR2, CXCR4 and CD74 (protein) PMFIVNTNVPRASVPDGFLSELTQQLAQATGKPPQYIAVHVVPDQLMAFGGSSEPCALCSLHSIGKIGGAQNRSYSKLLCGLLAERLRISPDRVYINYYDMNAANVGWNNSTFA", "values": [{"measurement": "induction of T-cell transmigration", "setting": "[5]", "value": "dose-dependently induced transmigration"}, {"measurement": "calcium influx in neutrophils", "setting": "[6]", "value": "induced calcium influx"}, {"measurement": "CCR5 internalization", "setting": "[7]", "value": "unable to induce CCR5 internalization"}, {"measurement": "MIF concentration that induced optimal chemotaxis", "setting": "[8]", "value": "2 to 4", "unit": "nM"}, {"measurement": "optimum concentration of bell-shaped dose-response curve of monocyte migration", "setting": "[8]; MIF in lower chamber", "value": "25 to 50", "unit": "ng/mL"}, {"measurement": "monocytic cell arrest on pretreated CHO/ICAM-1 transfectants", "setting": "[3]", "value": "increased monocytic cell arrest"}, {"measurement": "calcium influx in CXCR2 transfectants", "setting": "[9]", "value": "dose-dependently induced calcium influx, and was slightly less potent and effective than CXCL8 or CXCL7"}, {"measurement": "CXCR2 internalization", "setting": "[10]", "value": "induced CXCR2 internalization"}, {"measurement": "chemotactic activity on neutrophils", "setting": "[11]", "value": "exerted CXCR2- but not CXCR1-mediated chemotactic activity"}, {"measurement": "leukocyte adhesion and emigration in postcapillary venules", "setting": "[12]", "value": "marked increase"}, {"measurement": "earliest time of αLβ2 activation after exposure", "setting": "[13]", "value": 1, "unit": "min"}, {"measurement": "arrest of primary human monocytes on pretreated endothelial cells", "setting": "[14]", "value": "substantially increased"}, {"measurement": "neutrophil recruitment after intraperitoneal injection", "setting": "[15]", "value": "elicited neutrophil recruitment"}, {"measurement": "arrest of primary human effector T cells", "setting": "[4]", "value": "triggered the arrest"}, {"measurement": "upregulation of arrest chemokines known to engage CXCR2 (CXCL1, CXCL8)", "setting": "[16]", "value": "failed to upregulate"}]}
